Data on 41 sequences can be found in the nanobody polyreactivity screen of Harvey et al. (2022).

A short description of this series: yeast display, Sf9 membrane polyspecificity reagent, FACS + sequencing; frameworks hold sequencing errors. The essentials: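 Galactose induction of a Saccharomyces cerevisiae BJ5465 synthetic nanobody display library ran 36–48 hours. The cells were then stained for 1 hour at 4 °C with 10% biotinylated, detergent-solubilized Sf9 membrane reagent, pulled down on streptavidin microbeads and FACS-sorted into low and high (top ~1%) gates on expression and reagent-binding fluorescence. Labels for polyreactivity follow the gate of origin.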
Turning to “QVQLVESGGGLVQAGGSLRLSCAASVSIILDNAMGWYRQAPGKERELVASIDWSGGSTDYADSVKGRFTISRDNAKNTVYLQMNSLKPEDTAVYYCNAERYPYRLRARKLDYWGQGTQVTVSS”, the “polyreactivity (PSR sort gate)” value is on record as “low polyreactivity”. With “QVQLVESGGGLVQAGGSLRLSCAASGFTFAYYTMGWYRQAPGKERELVAAINWSGGSTYYADSVKGRFTISRDNAKNTVYLQMNSLKPEDTAVYYCAAKSYWWATYEYWGQGTQVTVSS” the entry was “high polyreactivity”; with “QVQLVESGGGLVQAGGSLRLSCAATGSIFRYNTMGWYRQAPGKERELVATITRRGGSTYYADSVKGRITISRDNAKNTVYLQMNSLKPVDTAVYYCNDDNFGGPYNYWGQGTQVTVSS”, “low polyreactivity”. With “QVQLVESGGGLVQAGRSLRLSCAASGTIFAFYAMGWYRQAPGIVRELVAAITWRGGRTTYADSVKGRFTISRDNAKNTVYLQMNSLKPEDTAVYYCAAVIHWWYATYDYWGQGTQVTVSS” the entry was “high polyreactivity”. Turning to “QVQLVESGGGLVQAGGSLRLSCAASGFIFTIYAMGWYRQAPGKERELVAAITWNGGRTYYADSVKGRFTISRDNAKNTVDLQMNSLKPEDTAVYYCAARYGRAYDYWGQGSQVTVSS”, the “polyreactivity (PSR sort gate)” value was “high polyreactivity”. With “QVQLVESGGGLVQAGRSLRLSCAASGSILGYYAMGWYRQAPGKERELVAITSGDSTYYADSVNGRFTISRDNAKNTVYLQMNSLKPEDTAVYYCAAEGQNEGYDYWGQGTKVTVSS” the entry was “high polyreactivity”. On to “QLQLVESGGGLVQAGGSLRLSCAASGSTLDRYVMGWYRPAPGKERELVAAISRNGGSTYYADSVKGRFTISRDIAKNTVYLQMNSLKPEDTAVYYCAAYIYQSPTRGGGYWGQGTQVTVSS”, for which the “polyreactivity (PSR sort gate)” value is reported as “high polyreactivity”. With “QVQLVESGGGLDQAGGSLRLTCAASGSTFEVYAMGWYRQAPGKERELVAVNNVSDGSTYYADSVKGRFTISRDNAKNTVYLQMNSLKPEDTAVYYCAAYLYNRPYQLTGYYDGYGYWGQGTQVTVSS” the entry was “low polyreactivity”; with “HVQLVESGGGLVQAGASLRLSCAASGRTFGRYAMGWSRQAPGKERELVAAIRSGGSTYYADSVKGRFTISRDNAKNTVYLQMNSLNPEDPAVYYCAADIARHLTGFAYDRLDYCGQGTQVTVSS”, “low polyreactivity”. With “QVQLVESGGGLVQAGGSLRLSCAASGFTFSGNALGWYRQARGKERELVAAISVGGGRTYYADSVKGRFTISRDNAKNTVYLQMNSLKPEDTAVYYCARYTRRSETWRYDYWGQGTQVTVSS” the entry was “high polyreactivity”; with “QVQLVESGGGLVQAGGSLRISCAASGFTFVYNTMGWYRQAPGKERELVAAITSRGGSTYYADSVKGRFTISRDNAKNTVYLQMYSLKPEDTAVYYCAAKISVRTSGTRYYYWGQGTQVTVSS”, “high polyreactivity”. With “QVQLVESGGGLVQAGGSLRLSCAASGRTLGKYVMGWYRQAPGKERELVAAISVRGGTTYYADSVKGRFTISRDNAKYTVYLQMNSLKPEDTAVYYGNKAYYVWYGWGQGTQVTVSS” the entry was “high polyreactivity”; with “QVQLVESGGGLVQAGGSLRLSCAASGSTFVDNALGGYRQAPGKERELVAGISIGGITYYADSVKGRFTISRDNAKNTVYLQMNSLKPEDTAVYYCAKRHKRTRNKYYYWGQGTQVTVSS”, “high polyreactivity”.

Turning to “QVQLVESGGGLVQAGGSLRLSCAASGRTFFRYGMGWYRQAPGKEREFVAAITRSGTTTYYADSVKGRFTISRDNAKNTVYLQMNSLKPEDTAVYYCAAQRAARVDGKSDYWGQGTQVTVTS”, the “polyreactivity (PSR sort gate)” value is listed as “low polyreactivity”. With “QVQLVESGGGLVQAGGSLRLSCAASGRTIQTYAMGWYRQAPRKERELVAAITSSGGSTYYADSVKGRFTISRDNAKNTVYLQMNSLIPEDSAVYYWSAYRRIRVGVPVRTYYYWGQGTQVTVSS” the entry was “high polyreactivity”; with “QVQLVESGGGLVQAGGSLRLCCAAYGRTFRGNAMRLYTQAPGKERELVAVITSGDSTYYADSVKGRFTNSRDNAKNTVYLQMNSLKPEDTAVYYCAAYLWKSKRKLDYWGQGTQVTVTS”, “high polyreactivity”. With “QVQLVESGGGLVQAGGSLRLSCAAYGNTFYPYTMGWYRQAPGKERELVADITYIGGDTYYADSVKGRFTISRDNAKNTVYLQMNSLKPEDTAVYYCNKDGGYFETYHTYTLDDYWGQGTQVTVSS” the entry was “low polyreactivity”. As to “QVQLVESAAGLVQAGGSLRLSGAASGRIFRYYAMGCYRQAPGKEREFVAGITWSGGRTYYADSVKGRFTISRANAKNTVYLQMNTLKREDTAVYYCAADGWGYSFQWQDHDYWGQGTQVTVSS”, the “polyreactivity (PSR sort gate)” value is “low polyreactivity”. With “QVQLVESVGGLVQAGGSLRLSCAPSGRIFGKYAMGWYRQAPGKERELVADITWGGGSTNYADSVKGRFTISRDNAKNTVYLQMNSLNPDDTAVYYCATGFYYYLTKTIPYEYEYWGQGTQVTVSS” the entry was “low polyreactivity”; with “QVQLVESGGGLVQAGGSLRLSCAASGFTFEYYTMGWYRQAPGTERELVAAITKRGGSTYYADSVKGRFTISRDNAKNTVYLQMNSLKPEDTAVYYCAVRKPYSRYTVNYDSWGQGTQVTVSS”, “high polyreactivity”. With “QGQLVESGGGLVQAGGSLRLSCAASGSTFWLNAMGWYRHAPGKERELVAVITWSGDGTYYADSVKWRFTISRDNAKNTVYVQMNSLKPEDTAVYYCAKGFERYPWYDYWGQGTQVTVSS” the entry was “low polyreactivity”; with “QVQLVESGGGLVQAGGSLRLSCAASGSIFVANAMGWYRQAPGKERELVAAISGSGDRTRYADSVKGRFTISRDNAKNTVYLQMNSLKPEDTAVYYCNARYYASGNLYNYWGQGTQVTVSS”, “high polyreactivity”; with “QVQLVESGGGLVQAGGILRLICAASGLTFYRYAMGWYRQAPGKERELVAAINSRGSTYADSVKGRFTISRDNAKNTVYFQMNSLKPEDSAVYYCAARGRYRLYGYWGQVTQVTVSS”, “high polyreactivity”.

With “QGQLVESGGGLVQAGGSLRLSCAASGSIVWYNAMGWYRQAPGKERELVAAINWSGGSTFYADSVKGRFTISRDNAKNTVYLQMYSLKPEDTAVYYCAADDWYTGYDYWGQGTQVTVSS”, the “polyreactivity (PSR sort gate)” value was “high polyreactivity”. On to “QVQLVESCGGLVQAGGSLRLSSAASGSIFEYNAMGWYRQEPGKERELVGAITSTDSTYADSVKGRFTISRDNAKNTVYLQMNSLKPEDTAVYYCAAEDVIYYLTGQWREYDYWGQGTQVTVSS”, for which the “polyreactivity (PSR sort gate)” value is “low polyreactivity”. With “QVQLVDSGGGLVHAGGSLRLSCASSGSIFNYYAMGCYRQPPGKVRELVAAISYRTGSTYYADSVKGRFTISRDNAKNTVYLQMTSLKPEDTSVYYCAADTRYGYGYWGQGTQVTVSS” the entry was “high polyreactivity”; with “QVQLVDSGGCLVQAGRSLRLSCAASGSIYVPNAMGWYRQAPRKERDLVAGISRGGSTNYADSVKGRFTISRDNAKNSVYLQMKRLKPEDTAVYYCARDSRTIRYYAWFYPFRYDYWGQGTQVTVSS”, “low polyreactivity”; with “QVQLVESGGGLVQAGGSLRISCAASGSTFYVNAMGWYRQAPGKERELVAAIDGGDTYYADSVKGRFTISRDNAKNTVYLQMNSLKPEDTAVYYCAAESLPEISVGLGYWGQGTQVTVSS”, “low polyreactivity”. With “QVQLVESGRGLVQAGGSLRLSCAASGRIFRVNAMGWYRQAPGKERELVAAISWGGGSTYYADSVKGRFTISRDNAKNTVYLQMNSLKREDTAVYYCATTLVKSQSRYYYWGQGTQVTVSS” the entry was “high polyreactivity”; with “QVQLVESGGGLVQAGGSLRLSCAASGFIFRYAMGWYRQAPGKERELVAAISSSGGSTNYADSVKGRFTISRDNAKNTVYLQMNSLKPEDTAVYYCAARDGRQPRGYRLVTYYAPMYYWGQGTQVTVSS”, “high polyreactivity”. With “QVQLVESGGGLVQAGGSLRLSCAASGLTFGNYAMGWYRQAPGKERELVAAISKRGGTTYYADSVKARFTISRDNAKNTVYLQMNSLKPEDTAVYYCSARDYSHPTDDNYWGQGTQVTVSS” the entry was “high polyreactivity”; with “QVQLVESGGGLVQAGGSLRLSCAASGYIFYHYAMGWYRQAPGKERELVATISLGGGRTYYADSVKGRFTISRDTAKNTVYLQMNSLKPEDTAVYYCAADDGPGFDYWGQGTQVTVSS”, “high polyreactivity”; with “QVQLVESGGGLDQAGGSLRLSCAASGRTFLVYAMGWYRQAPGKERELVAAISRSGGSTYYADSVMRRFTISRDNAKNNVYLQMNSLIPEDTAVYYCAAKKTGRYYWGQGTEVTVSS”, “high polyreactivity”. With “QVQLVESGGGLVQAGGRLRLSFAASGSIFYRNVLGWYREAPGKERELVATISRGGTTNYADSVKGRFTISRDNAKNTVYLQMNSLKPEDTAVYYCAAPIGDVYVGKGYDSWGQGTQVTVSS”, the “polyreactivity (PSR sort gate)” value is “low polyreactivity”. With “QVQHVESGGGLVQAGGSLRLSCAASGFIFWYYAMGLYRQAPGKERELVADISSGGSTNYADSVKGRFTISRDNAKNTVYLQMNSLKPDDTAVYYCAADTFRRDDYWGQGTQVTVSS” the entry was “low polyreactivity”; with “QVQLVESGGVLVQAGGSLRLSCAASGRIFGDNAMGWYRHAPGKERELDADIDSGGRTNYADSVKVRFTISLDNAKNTVYLQMNSLKPEDTAVYYCGRDDIAYLVEYDYWGQGTQVTVSS”, “low polyreactivity”; with “QVQLVESGGGLVQAGGSLRLSCAASGRNFYRYGMGWYRQAPGKERELVAAITYGGGSTYADSVKGRFTISRDNAKNTVYLQMNSLKPEDTAVYYCNARSRYRHYGFDYWGQGTQVTVSS”, “high polyreactivity”.

Regarding “QVQLVESGGGLVQAGGSLRLSCAASGRTFDNYAMGWYRQAPGKERELVAAISSSGGRTYYADSVKGRFTISRDNAKNTVYLQMNSLKPEDTAVYYCAAVWPVYRTHPGMDYWGQGTQVTVSS”, the “polyreactivity (PSR sort gate)” value is reported as “high polyreactivity”. With “QVQLVESGGGLVQAGGSLRLSCAASGTIFFGNTMGWYRQAPGKERELVAVITSSGGRTFYADSVKGRFTISRDNAKNTVYLHMNSLKPEDTAVYYCAAGHGFYYFTPTHDSWGQGTQVTVSS” the entry was “high polyreactivity”; with “QVQLVESGGGLVQAGGSLRLSCAASGRTFVRYAMGWYRQAPGKERELVARITSRGTSTYYADSVKGRFTISRDNAKNTVYLQMNSLKPEDTAVYYCNKVRTFRDKSRYDYWGQGTQVTVSS”, “low polyreactivity”. With “QVQLVESGGGLVQAGGSLRLSCAASASTFTINAMGWYRQAPGKERELVAAISRSGGSTFYADSVKGRFTISRDNAKKTVYLQMNSLKPEDTAVYYCAARGVNRQGFNYWGQGTQVTVSS” the entry was “high polyreactivity”.
